{"source": "the DeepSol protein solubility set"}
{"assay": "soluble on expression in E. coli; label from the status in PepcDB or PDB records"}
{"sequence": "MRFEEEIGSLQMLCDQFQNKINTLEKQMNEEKKDYVQKLHRLHEKNGEAIDKMKQLDHTMQAVSTKVVHLGDQLESVDQPRSRAHDAHQLMQHFDEFLSDQPLNSMIFTDPDKLLESADLVHKLYSISQELNKDKFANVQARIGQRYKVVEDLLIEEFVRSQRDEKKMAEVAKILSEFKGYSGCVDRYVDFLCQSIHPRGDGGEILADCLQLCRTQQPRISAIFPSPHTVMQKLVLNIFTGRMKETITARLRECKDTDDQEHYLRDLAYLYSSTLKMCKELEKLHISPDSAFLSTLTDSIFQRYIATYCSEELKYLNDQCSNLLQRFYESKKHVKKQIGGGLHELKRDVAARLMNVETYGGETFVAEDVAISILQETKNAFGRANQLCDKEELPRHVENIVDVLLKYLYGEHLDYAVETGLAGISLAESKTEPPAYFFSVVAKCTSVILLMIKQFEDPIFPIIKETIVEPSVAKKWQQSLRSLESKMSLGLERQLNSIVGYVKFLFSEQKKTDFRPDSQQIDIRVSPQCQLASRFLANQVAAMELGCDGENLEALQSDLATRLFKFMLTHIQQFTYNSTGAVLLLCDVGELRTLVSKWRVQNALTQWESLQALTNLLAVLPDQVNETAHSSLLENVDRQLIHDFVRLRTDFRSIKNFQI", "soluble on expression in E. coli": "not soluble"}
{"sequence": "MRFKVVGKNIVVTEALKEAAVKKVGKLDKYFRRDAEATITMSVQKNRHIVEVTIPFEGGLLRAEEDSPDMYASIDKVIDSLERQIRRNKTKLEKKVHDGSLRFENIKFDDDEVEEEPKFEVVRTKKFAIKPMTVEEAILQMNLLGHQFFMFSNAETNEANVVYRRKDGNYGLIEPEF", "soluble on expression in E. coli": "not soluble"}
{"sequence": "MRFLHTADWQLGMTRHFLNGEAQPRYSASRREAVASLGEIAKRTGAEFVVVSGDVFEHNQLAPRDVSQSLEAMRAIGVPVYLLPGNHDPLDASSVYTSALFVAERPDNVVVLDRAGVHEVRPGVQIVAAPWRSKAPTSDLIGDVLADLPADGVTRVLVGHGGVDILDPDKNKPSLIRMAAVEDALARGAVHYVALGDKHSRTEVGGSGRVWYSGSPEVTNYDDIESDPGHVLVVDIDENDARRAVRVESEKVGRWRFVTLRRSVDTDRDIADLDLNLDLLDDKERTVVRLALTGSLTVTDKAKLDECLDRYARLFAALTTWERLEHHHHHH", "soluble on expression in E. coli": "not soluble"}
{"sequence": "MRGRPIELEPWQQFAFACILGFKVKATGRRKYTSAFIEVPRKNAKSTTAAILANWFLIMENGQQDIYTAAVSRDQARIVFDNARQMCLLSRPLRRRVNIQAHKVIHPKSNSLLKPLAAKAATIEGTNPSLSIVDEYHLHPDNGVYSALELGMGARPEGLLFAITTSGSNVVSACKQHYDYCCQILDGEEVNDSIFVLIYELDDENEVDDPAMWIKANPNIDVSVDREKLASTIQKARGIPSQWVEMMTKRFNIWCQGTTPWMGNGAWAECAGTFTEEDLHGQECYAGLDLSSTSDISSVCYAFPVGKTIMLISRHYLPEFQLQNPANKNRAVYRQWAKAGWIRTTPGDCIDYDRIRDDIMQDAEKFNIRLVGFDTWNATHLRTQLQGAGFEVEPFPQTYLRFSPAAKSFEVFVNRRVIVHRGDPVLSWSMSNVVMQSDANANIKPNKKKSPNKIDPSVAALMAFGTFQAEHEDFAFDISDSHRQKLEEFSGV", "soluble on expression in E. coli": "not soluble"}
{"sequence": "MRGSHHHHHHGSLQVTVRDAINQGMDEELERDEKVFLLGEEVAQYDGAYKVSRGLWKKYGDKRIIDTPISEMGFAGIAVGAAMAGLRPICEFMTFNFSMQAIDQVINSAAKTYYMSGGLQPVPIVFRGPNGASAGVAAQHSQCFAAWYGHCPGLKVVSPWNSEDAKGLIKSAIRDNNPVVVLENELMYGVPFEFPPEAQSKDFLIPIGKAKIERQGTHITVVSHSRPVGHCLEAAAVLSKEGVECEVINMRTIRPMDMETIEASVMKTNHLVTVEGGWPQFGVGAEICARIMEGPAFNFLDAPAVRVTGADVPMPYAKILEDNSIPQVKDIIFAIKKTLNI", "soluble on expression in E. coli": "soluble"}
{"sequence": "MRGSHHHHHHGSPGLQEFMAATGANAEKAESHNDCPVRLLNPNIAKMKEDILYHFNLTTSRHNFPALFGDVKFVCVGGSPSRMKAFIRCVGAELGLDCPGRDYPNICAGTDRYAMYKVGPVLSVSHGMGIPSISIMLHELIKLLYYARCSNVTIIRIGTSGGIGLEPGTVVITEQAVDTCFKAEFEQIVLGKRVIRKTDLNKKLVQELLLCSAELSEFTTVVGNTMCTLDFYEGQGRLDGALCSYTEKDKQAYLEAAYAAGVRNIEMESSVFAAMCSACGLQAAVVCVTLLNRLEGDQISSPRNVLSEYQQRPQRLVSYFIKKKLSKA", "soluble on expression in E. coli": "soluble"}
{"sequence": "MRGSHHHHHHGSRVMVIGGDGYCGWATALHLSKKNYEVCIVDNLVRRLFDHQLGLESLTPIASIHDRISRWKALTGKSIELYVGDICDFEFLAESFKSFEPDSVVHFGEQRSAPYSMIDRSRAVYTQHNNVIGTLNVLFAIKEFGEECHLVKLGAMGEYGTPNIDIEEGYITITHNGRTDTLPYPKQASSFYHLSKVHDSHNIAFTCKAWGIRATDLNQGVVYGVKTDETEMHEELRNRLDYDAVFGTALNRFCVQAAVGHPLTVYGKGGQTRGYLDIRDTVQCVEIAIANPAKAGEFRVFNQFTEQFSVNELASLVTKAGSKLGLDVKKMTVPNPRVEAEEHYYNAKHTKLMELGLEPHYLSDSLLDSLLNFAVQFKDRVDTKQIMPSVSWKKIGVKTKSMTT", "soluble on expression in E. coli": "soluble"}
{"sequence": "MRGSHHHHHHGSTMDIKPAFGTNQEDYASYIMNGIIKWGDPVTRVLDDGELLVQQTKNSDRTPLVSVLLEGPPHSGKTALAAKIAEESNFPFIKICSPDKMIGFSETAKCQAMKKIFDDAYKSQLSCVVVDDIERLLDYVPIGPRFSNLVLQALLVLLKKAPPQGRKLLIIGTTSRKDVLQEMEMLNAFSTTIHVPNIATGEQLLEALELLGNFKDKERTTIAQQVKGKKVWIGIKKLLMLIEMSLQMDPEYRVRKFLALLREEGASPLDFK", "soluble on expression in E. coli": "soluble"}
{"sequence": "MRGSHHHHHHGSVEYTPWLIAGLGNPGNKYYGTRHNVGFEMVDRIAAEEGITMNTEQSKSLLGIGSIGEVPVLVVKPQSYMNYSGEAIGPLAAYYQVPLRHILLIYDDTSLPNGVLRLQKKGGHGRHNGLQNVIEHLDGRREFPRLSIGIGSPPGKMDPRAFLLQKFSSEERVQIDTALEQGVDAVRTLVLKGFSGSTERFNLVQKYKFHRV", "soluble on expression in E. coli": "soluble"}
{"sequence": "MRGSHHHHHHTDPALRAKKIAIVGAGPTGIYTLFSLLQQQTPLSISIFEQADEAGVGMPYSDEENSKMMLANIASIEIPPIYCTYLEWLQKQEDSHLQRYGVKKETLHDRQFLPRILLGEYFRDQFLRLVDQARQQKFAVAVYESCQVTDLQITNAGVMLATNQDLPSETFDLAVIATGHVWPDEEEATRTYFPSPWSGLMEAKVDACNVGIMGTSLSGLDAAMAVAIQHGSFIEDDKQHVVFHRDNASEKLNITLLSRTGILPEADFYCPIPYEPLHIVTDQALNAEIQKGEEGLLDRVFRLIVEEIKFADPDWSQRIALESLNVDSFAQAWFAERKQRDPFDWAEKNLQEVERNKREKHTVPWRYVILRLHEAVQEIVPHLNEHDHKRFSKGLARVFIDNYAAIPSESIRRLLALREAGIIHILALGEDYKMEINESRTVLKTEDNSYSFDVFIDARGQRPLKVKDIPFPGLREQLQKTGDEIPDVGEDYTLQQPEDIRGRVAFGALPWLMHDQPFVQGLTACAEIGEAMARAVVKPASRARRRLSFDGLCGR", "soluble on expression in E. coli": "soluble"}
{"sequence": "MRGSHHHHHHTDPALRAKKIPCVMMRGGTSRGAFLLAEHLPEDQTQRDKILMAIMGSGNDLEIDGIGGGNPLTSKVAIISRSSDPRADVDYLFAQVIVHEQRVDTTPNCGNMLSGVGAFAIENGLIAATSPVTRVRIRNVNTGTFIEADVQTPNGVVEYEGSARIDGVPGTAAPVALTFLNAAGTKTGKVFPTDNQIDYFDDVPVTCIDMAMPVVIIPAEYLGKTGYELPAELDADKALLARIESIRLQAGKAMGLGDVSNMVIPKPVLISPAQKGGAINVRYFMPHSCHRALAITGAIAISSSCALEGTVTRQIVPSVGYGNINIEHPSGALDVHLSNEGQDATTLRASVIRTTRKIFSGEVYLPGLCGR", "soluble on expression in E. coli": "soluble"}
{"sequence": "MRGSPHHHHHHGSAKNVVLDHDGNLDDFVAMVLLASNTEKVRLIGALCTDADCFVENGFNVTGKIMCLMHNNMNLPLFPIGKSAATAVNPFPKEWRCLAKNMDDMPILNIPENVELWDKIKAENEKYEGQQLLADLVMNSEEKVTICVTGPLSNVAWCIDKYGEKFTSKVEECVIMGGAVDVRGNVFLPSTDGTAEWNIYWDPASAKTVFGCPGLRRIMFSLDSTNTVPVRSPYVQRFGEQTNFLLSILVGTMWAMCTHCELLRDGDGYYAADALTAAYVVDQKVANVDPVPIDVVVDKQPNEGATVRTDAENYPLTFVARNPEAEFFLDMLLRSARAC", "soluble on expression in E. coli": "soluble"}
{"sequence": "MRGSPRTKDRLAALKAAVSDEEDVEEVAVQVDSGGGFMEEFFEQVEEIRAMIDKISDNVDAVKKKHSDILSAPQTDDQMKEELEELMTDIKRTANKVRGKLKTIELNIEQEEHSNKSSADLRIRKTQYSTISRKFVEVMSDYNTTQIDYRDRCKARIKRQMEITGRTTTNEELEDMLESG", "soluble on expression in E. coli": "soluble"}
{"sequence": "MRIALFTETFLPKIDGIVTRLCQTVRHLQRNGHQVLVVAPDGGLDHYEGARIYGVSGFPLPLYPELKLALPRPAIGKALAAFEPDLIHVANPAVLGLAGLYYAQKFQLPLVASYHTHLPQYLKYYGLGFLEELLWFLLRWGHNCAQLNLCTSTAMVAELKAHGIRHLDLWQRGVDVELFHPQRQSQEMRHFLSQGHPEAPLLLYVGRLSAEKEIEQIKPILEQIPQARLALVGNGPHREALEKHFAGTPTHFVGYLRGERLAGAFASADVFIFPSRTETLGLVLLEAMAAGCPVVAANSGGIPDIVTDGVNGFLFDPADPTGAITACQRLFDSPDDRETLRQNARQEAERWSWAAATQQLEQYYRSVLPVPQRDVALSHLEHHHHHH", "soluble on expression in E. coli": "not soluble"}
{"sequence": "MRIEAAELRILELPLKFRFETSFGVQTKRTILLLRLFGEGLEGLGEGVMERLPLYREETVAGARYLLEEVFLPRVLGRDLPNPEALREALAPFRGNPMAKAVLEMAFFDLWAKALGRPLWQVLGGVRQAVEVGVSLGIQPSVEDTLRVVERHLEEGYRRIKLKIKPGWDYEVLKAVREAFPEATLTADANSAYSLANLAQLKRLDELRLDYIEQPLAYDDLLDHAKLQRELSTPICLDESLTGAEKARKAIELGAGRVFNVKPARLGGHGESLRVHALAESAGIPLWMGGMLEAGVGRAHNLHLATLPGFTKPGDVSSASRYWEEDIVEEALEAKDGLMPVPEGVGIGVHLKLPFVERVTLWQRYMSAS", "soluble on expression in E. coli": "soluble"}
{"sequence": "MRIGIISVGPGNIMNLYRGVKRASENFEDVSIELVESPRNDLYDLLFIPGVGHFGEGMRRLRENDLIDFVRKHVEDERYVVGVCLGMQLLFEESEEAPGVKGLSLIEGNVVKLRSRRLPHMGWNEVIFKDTFPNGYYYFVHTYRAVCEEEHVLGTTEYDGEIFPSAVRKGRILGFQFHPEKSSKIGRKLLEKVIECSLSRR", "soluble on expression in E. coli": "soluble"}
{"sequence": "MRIGLFGGSFDPIHLGHLLAASQAQEVLCLDRVLFVVAARPPHKVPVAPAEARYEMTLLAVAEDPRFTVSRLELDRPGPSYTVDTLREARRLFPQDELFFITGADAYRDVLTWKEGERLPEYATLVAVARPGYPLEEAPLPVVPLFVPEVGISSTEIRRRLKEGRSVRYWVPRAVEVYIEKHGLYR", "soluble on expression in E. coli": "soluble"}
{"sequence": "MRILQLILLALATGLVGGETRIIKGFECKPHSQPWQAALFEKTRLLCGATLIAPRWLLTAAHCLKPRYIVHLGQHNLQKEEGCEQTRTATESFPHPGFNNSLPNKDHRNDIMLVKMASPVSITWAVRPLTLSSRCVTAGTSCLISGWGSTSSPQLRLPHTLRCANITIIEHQKCENAYPGNITDTMVCASVQEGGKDSCQGDSGGPLVCNQSLQGIISWGQDPCAITRKPGVYTKVCKYVDWIQETMKNN", "soluble on expression in E. coli": "soluble"}
{"sequence": "MRINEMALHEKPRERLITYGAKSLSNVELLAILLNTGRKGFSSIDIANELLKQQSTIRDLKKLSINDLLKIKGIGLYKAVILQAAFELGERINSTSTFDKVQITHPSDVASLMMSTMKDLEQEHFVVLLLNSKNIVTKQAWVYKGTLNSSIIHPREVFNIAIRESSNSIIVVHNHPSGDVTPSKEDITTTYRLKECGDILGINLLDHIIIGDNKFTSLVEAGYFDK", "soluble on expression in E. coli": "not soluble"}
